Reference: patent publication EP4467153A1, “CONSTRAINED PEPTIDE INHIBITORS OF LRRK2-FADD INTERACTIONS” (University of Georgia Research Foundation, Inc., priority 2023, dated 2024)
Positions of bridges follow the written chain, without caps; N, C: chain ends. Non-standard residues stand in square brackets, D forms with d. Primed or numbered codes have the meaning given here. FAM = 5(6)-carboxyfluorescein label; S5 = C=CCCC[C@](C)(N)C(=O)O; PEG3′ = PEG3 spacer

Biological target: T1, LRRK2-FADD PPI (Flag G2019S-LRRK2 and V5-FADD) (Homo sapiens, UniProt Q5S007, G2019S)
T1 construct: expressed in transfected cells; host or cells: HEK293T
T1 sequence (Q5S007 whole entry G2019S): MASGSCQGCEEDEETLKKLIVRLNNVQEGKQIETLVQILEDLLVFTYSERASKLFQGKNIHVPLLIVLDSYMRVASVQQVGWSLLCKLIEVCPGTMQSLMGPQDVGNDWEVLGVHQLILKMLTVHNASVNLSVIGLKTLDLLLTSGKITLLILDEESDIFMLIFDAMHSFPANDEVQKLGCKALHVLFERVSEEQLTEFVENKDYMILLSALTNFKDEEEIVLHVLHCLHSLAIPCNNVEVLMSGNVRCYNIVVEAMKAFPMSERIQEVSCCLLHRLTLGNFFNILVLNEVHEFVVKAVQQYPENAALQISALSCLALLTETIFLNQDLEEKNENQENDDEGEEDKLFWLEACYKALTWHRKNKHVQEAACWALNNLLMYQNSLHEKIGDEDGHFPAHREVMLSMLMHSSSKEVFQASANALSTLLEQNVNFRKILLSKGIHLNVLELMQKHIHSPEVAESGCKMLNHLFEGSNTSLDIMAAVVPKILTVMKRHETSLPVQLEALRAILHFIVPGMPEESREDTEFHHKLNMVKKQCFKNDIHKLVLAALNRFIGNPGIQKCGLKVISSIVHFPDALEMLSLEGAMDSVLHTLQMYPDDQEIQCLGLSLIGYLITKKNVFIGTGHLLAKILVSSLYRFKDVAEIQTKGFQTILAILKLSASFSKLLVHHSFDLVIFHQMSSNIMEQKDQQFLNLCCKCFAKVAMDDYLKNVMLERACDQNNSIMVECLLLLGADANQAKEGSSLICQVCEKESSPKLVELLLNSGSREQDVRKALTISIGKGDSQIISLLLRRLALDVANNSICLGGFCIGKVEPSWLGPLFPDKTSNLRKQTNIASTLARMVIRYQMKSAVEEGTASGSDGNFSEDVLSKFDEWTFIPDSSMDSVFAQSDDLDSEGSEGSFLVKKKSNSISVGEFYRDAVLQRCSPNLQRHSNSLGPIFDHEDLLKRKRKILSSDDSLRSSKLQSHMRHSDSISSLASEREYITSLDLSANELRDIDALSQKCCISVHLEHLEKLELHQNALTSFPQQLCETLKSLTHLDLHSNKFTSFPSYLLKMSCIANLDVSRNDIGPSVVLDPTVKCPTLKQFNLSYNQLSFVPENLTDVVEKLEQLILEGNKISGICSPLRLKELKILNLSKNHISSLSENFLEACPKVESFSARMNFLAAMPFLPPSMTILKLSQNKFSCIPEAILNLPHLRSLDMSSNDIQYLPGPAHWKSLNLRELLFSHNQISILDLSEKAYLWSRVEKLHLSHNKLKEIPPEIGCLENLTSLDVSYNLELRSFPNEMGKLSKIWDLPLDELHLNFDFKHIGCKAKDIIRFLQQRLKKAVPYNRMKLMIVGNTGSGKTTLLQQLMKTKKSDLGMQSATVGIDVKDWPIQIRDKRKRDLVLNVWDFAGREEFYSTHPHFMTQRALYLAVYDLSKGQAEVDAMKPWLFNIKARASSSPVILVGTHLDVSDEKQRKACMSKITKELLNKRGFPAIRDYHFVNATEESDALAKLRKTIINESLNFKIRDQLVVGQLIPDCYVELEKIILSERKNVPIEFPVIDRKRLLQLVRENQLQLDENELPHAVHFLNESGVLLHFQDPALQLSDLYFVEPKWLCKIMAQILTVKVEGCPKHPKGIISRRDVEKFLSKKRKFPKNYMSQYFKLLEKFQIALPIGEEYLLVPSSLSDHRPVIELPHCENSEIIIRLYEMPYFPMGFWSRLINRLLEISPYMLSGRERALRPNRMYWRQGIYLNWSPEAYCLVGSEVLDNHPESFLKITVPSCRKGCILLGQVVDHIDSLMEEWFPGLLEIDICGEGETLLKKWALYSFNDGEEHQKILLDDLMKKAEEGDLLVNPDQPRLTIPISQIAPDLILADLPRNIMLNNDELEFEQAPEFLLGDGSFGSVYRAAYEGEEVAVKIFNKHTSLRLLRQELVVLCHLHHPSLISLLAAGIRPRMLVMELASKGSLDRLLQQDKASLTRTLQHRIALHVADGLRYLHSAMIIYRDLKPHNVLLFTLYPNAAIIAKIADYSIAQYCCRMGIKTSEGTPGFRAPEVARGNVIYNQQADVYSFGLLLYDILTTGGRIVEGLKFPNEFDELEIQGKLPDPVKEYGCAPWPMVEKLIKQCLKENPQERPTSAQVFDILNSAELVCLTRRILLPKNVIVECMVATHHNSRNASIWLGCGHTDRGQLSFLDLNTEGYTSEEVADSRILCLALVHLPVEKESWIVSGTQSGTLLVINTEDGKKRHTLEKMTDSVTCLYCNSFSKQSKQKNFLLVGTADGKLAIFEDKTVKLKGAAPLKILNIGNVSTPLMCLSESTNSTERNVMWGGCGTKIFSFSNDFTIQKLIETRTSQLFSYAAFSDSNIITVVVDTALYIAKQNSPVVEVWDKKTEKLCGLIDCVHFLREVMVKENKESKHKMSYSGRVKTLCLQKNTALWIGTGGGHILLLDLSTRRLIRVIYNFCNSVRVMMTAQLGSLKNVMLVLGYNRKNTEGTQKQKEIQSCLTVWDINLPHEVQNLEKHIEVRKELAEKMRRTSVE
Test: Co-immunoprecipitation of LRRK2-FADD interaction in transfected HEK293T cells
Type: cell-based
Details: 10 µM, 48 hr, normalized to immunoprecipitated Flag-LRRK2
Protocol: It was then assessed whether this peptide library (FARM1-FARM5) could disrupt the interaction between over-expressed Flag G2019S-LRRK2 and V5-FADD by co-immunoprecipitation. Flag-LRRK2 was purified on anti-Flag resin and the eluate as well as the protein extract (input) separated by SDS-PAGE, with the membranes probed for V5 (FADD) and Flag (LRRK2). The transfected cells were treated with the indicated peptide (10 µM) for a total of 48 hr prior to collection. […] To minimize the use of primary mouse cortical neuron cultures, FARMS was used in subsequent experiments to examine the potential neuroprotective effects of LRRK2-FADD disruption.
Assessment of LRRK2-FADD interaction. Co-immunoprecipitation was undertaken to determine the effects of the stapled peptides on the LRRK2-FADD PPI, as previously described. Briefly, 10cm plates of HEK293T cells transiently expressing Flag-WT or mutant LRRK2 and V5-FADD (at a 3:1 ratio), and treated with different concentrations of FARM peptides (as indicated in the Figure legends), were washed in PBS and lysed in co-IP buffer (20mM HEPES, pH7.4; 150 mM NaCl; 0.1% NP40; 2 mM EGTA; 2 mM MgCl2; 10% glycerol, pH 7.2; protease and phosphatase cocktail [Agilent Technologies]) for 30 min on ice followed by 15 strokes with a Dounce glass homogenizer, and centrifugation at 13000 rpm for 15 min to remove cellular debris. Following pre-clearing with IgG-coupled beads, 40 µl of washed anti-Flag resin (Sigma-Aldrich) per mg of protein was added and the samples incubated under rotation overnight at 4°C. The following morning, the beads were centrifuged and washed a total of 5X with coIP buffer, before elution in 2X SDS sample buffer at 95°C for 10 min. The eluate (and input) was separated by SDS-PAGE and membranes probed with anti-Flag (LRRK2) and V5 (FADD).

Substance | amount of FADD that co-purified with G2019S-LRRK2 (LRRK2-FADD interaction)
FARM2: FAM-labeled hydrocarbon-stapled FADD Armadillo domain peptide; mass fits SEQ ID NO. 3 KVADLXQEVXQARDLQNRSK ({FAM-PEG3′}-KVADL[S5]QEV[S5]QARDLQNRSK-NH2; staple 6-10; not fully specified) [FAM-labeled hydrocarbon-stapled FADD Armadillo domain peptide; 3 KVADLXQEVX…] | to a lesser extent
FARM3: FAM-labeled hydrocarbon-stapled FADD Armadillo domain peptide; mass fits SEQ ID NO. 4 KVADLVQEXQQAXDLQNRSK ({FAM-PEG3′}-KVADLVQE[S5]QQA[S5]DLQNRSK-NH2; staple 9-13; not fully specified) [FAM-labeled hydrocarbon-stapled FADD Armadillo domain peptide; 4 KVADLVQEXQQAXDLQNRSK] | reduced the interaction between LRRK2 and FADD
